{"source": "paper PMC2755649", "about": "(Nature cell biology, 2009)", "key": {"[1]": {"molecular_target": "T1, Recombinant InlC.K173A with a C-terminal 6xHis tag (Listeria monocytogenes, UniProt P71451 35-297, K173A)", "T1 sequence (looked up)": "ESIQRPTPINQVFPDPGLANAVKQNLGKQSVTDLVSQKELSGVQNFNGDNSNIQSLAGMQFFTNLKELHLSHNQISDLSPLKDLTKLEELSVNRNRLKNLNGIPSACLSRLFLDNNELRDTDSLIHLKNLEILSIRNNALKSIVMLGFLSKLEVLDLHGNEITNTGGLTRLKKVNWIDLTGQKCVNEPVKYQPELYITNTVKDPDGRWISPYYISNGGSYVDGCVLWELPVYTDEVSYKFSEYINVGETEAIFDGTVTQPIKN", "experiment": "SPR"}, "[2]": {"molecular_target": "T2, Recombinant wild-type InlC with a C-terminal 6xHis tag (Listeria monocytogenes, UniProt P71451 35-297)", "T2 sequence (looked up)": "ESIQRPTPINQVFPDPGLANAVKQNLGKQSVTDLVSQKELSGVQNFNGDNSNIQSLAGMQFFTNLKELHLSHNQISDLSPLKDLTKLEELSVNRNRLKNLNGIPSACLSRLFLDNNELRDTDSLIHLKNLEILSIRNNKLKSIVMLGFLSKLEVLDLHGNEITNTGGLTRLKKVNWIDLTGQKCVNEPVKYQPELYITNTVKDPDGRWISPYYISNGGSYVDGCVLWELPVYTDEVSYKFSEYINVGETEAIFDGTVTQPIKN", "experiment": "SPR"}}}
{"binder": "SH36 protein of Tuba linked to the biosensor chip (domain or fragment, human, UniProt Q6XZF7 1513-1577, looked up) EGNQVYFAVYTFKARNPNELSVSANQKLKILEFKDVTGNTEWWLAEVNGKKGYVPSNYIRKTEYT", "values": [{"measurement": "Kd", "setting": "[1]", "result": "58 ± 12.3", "unit": "µM"}, {"measurement": "Kd", "setting": "[2]", "result": "9 ± 3.5", "unit": "µM"}]}
